B1: Platelet-activating factor acetylhydrolase IB subunit beta (Mus musculus), P63005 (parent)
chain: MVLSQRQRDELNRAIADYLRSNGYEEAYSVFKKEAELDMNEELDKKYAGLLEKKWTSVIRLQKKVMELESKLNEAKEEFTSGGPLGQKRDPKEWIPRPPEKYALSGHRSPVTRVIFHPVFSVMVSASEDATIKVWDYETGDFERTLKGHTDSVQDISFDHSGKLLASCSADMTIKLWDFQGFECIRTMHGHDHNVSSVAIMPNGDHIVSASRDKTIKMWEVQTGYCVKTFTGHREWVRMVRPNQDGTLIASCSNDQTVRVWVVATKECKAELREHEHVVECISWAPESSYSSISEATGSETKKSGKPGPFLLSGSRDKTIKMWDVSTGMCLMTLVGHDNWVRGVLFHSGGKFILSCADDKTLRVWDYKNKRCMKTLNAHEHFVTSLDFHKTAPYVVTGSVDQTVKVWECR
partner: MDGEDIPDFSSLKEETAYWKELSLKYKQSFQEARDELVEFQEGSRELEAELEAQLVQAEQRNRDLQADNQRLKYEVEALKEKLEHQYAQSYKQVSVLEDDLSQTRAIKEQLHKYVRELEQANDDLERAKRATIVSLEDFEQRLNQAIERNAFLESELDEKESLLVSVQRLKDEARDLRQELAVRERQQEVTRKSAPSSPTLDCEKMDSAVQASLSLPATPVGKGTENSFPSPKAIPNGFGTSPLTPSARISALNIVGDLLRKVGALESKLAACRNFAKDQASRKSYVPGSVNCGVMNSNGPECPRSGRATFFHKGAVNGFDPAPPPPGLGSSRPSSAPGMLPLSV

Variants of: B1
Conditions: with ndel1_mouse Ndel1, Q9ERR1

| effect of a mutation on the interaction | Variant |
| --- | --- |
| disrupting interaction | MVLSQRQRDELNRAIADYLRSNGYEEAYSVFKKEAELDMNEELDKKYAGLLEKKWTSVIRLQKKVMELESKLNEAKEEFTSGGPLGQKRDPKEWIPRPPEKYALSGHRSPVTRVIFHPVFSVMVSASEDATIKVWDYETGDFERTLKGHTDWVQDISFDHSGKLLASCSADMTIKLWDFQGFECIRTMHGHDHNVSSVAIMPNGDHIVSASRDKTIKMWEVQTGYCVKTFTGHREWVRMVRPNQDGTLIASCSNDQTVRVWVVATKECKAELREHEHVVECISWAPESSYSSISEATGSETKKSGKPGPFLLSGSRDKTIKMWDVSTGMCLMTLVGHDNWVRGVLFHSGGKFILSCADDKTLRVWDYKNKRCMKTLNAHEHFVTSLDFHKTAPYVVTGSVDQTVKVWECR [S152W] |
| disrupting interaction | MVLSQRQRDELNRAIADYLRSNGYEEAYSVFKKEAELDMNEELDKKYAGLLEKKWTSVIRLQKKVMELESKLNEAKEEFTSGGPLGQKRDPKEWIPRPPEKYALSGHRSPVTRVIFHPVFSVMVSASEDATIKVWDYETGDFERTLKGRTDSVQDISFDHSGKLLASCSADMTIKLWDFQGFECIRTMHGHDHNVSSVAIMPNGDHIVSASRDKTIKMWEVQTGYCVKTFTGHREWVRMVRPNQDGTLIASCSNDQTVRVWVVATKECKAELREHEHVVECISWAPESSYSSISEATGSETKKSGKPGPFLLSGSRDKTIKMWDVSTGMCLMTLVGHDNWVRGVLFHSGGKFILSCADDKTLRVWDYKNKRCMKTLNAHEHFVTSLDFHKTAPYVVTGSVDQTVKVWECR [H149R] |
| disrupting interaction | MVLSQRQRDELNRAIADYLRSNGYEEAYSVFKKEAELDMNEELDKKYAGLLEKKWTSVIRLQKKVMELESKLNEAKEEFTSGGPLGQKRDPKEWIPRPPEKYALSGHRSPVTRVIFHPVFSVMVSASEDATIKVWDYETGDFERTLKGHTDSVQDISFDHSGKLLASCPADMTIKLWDFQGFECIRTMHGHDHNVSSVAIMPNGDHIVSASRDKTIKMWEVQTGYCVKTFTGHREWVRMVRPNQDGTLIASCSNDQTVRVWVVATKECKAELREHEHVVECISWAPESSYSSISEATGSETKKSGKPGPFLLSGSRDKTIKMWDVSTGMCLMTLVGHDNWVRGVLFHSGGKFILSCADDKTLRVWDYKNKRCMKTLNAHEHFVTSLDFHKTAPYVVTGSVDQTVKVWECR [S169P] |
